Reference: paper doi:10.1101/2022.09.08.507146, “Cytomotive actins and tubulins share a polymerisation switch mechanism conferring robust dynamics” (bioRxiv, 2022)

Molecular target: the molecule itself
Assay: cryo-EM structure; BtubA*B single protofilaments, 0.21 mg/mL in HMK100 pH 7.7 with 0.5 mM GMPCPP, 45 s at 20 °C

B1: Prosthecobacter dejongeii BtubA*B heterodimer (BtubA* R284G, R286D, F287G with BtubB) (complex)
chain 1: MKVNNTIVVSIGQAGNQIAASFWKTVCLEHGIDPLTGQTAPGVAPRGNWSSFFSKLGESSSGSYVPRAIMVDLEPSVIDNVKATSGSLFNPANLISRTEGAGGNFAVGYLGAGREVLPEVMSRLDYEIDKCDNVGGIIVLHAIGGGTGSGFGALLIESLKEKYGEIPVLSCAVLPSPQVSSVVTEPYNTVFALNTLRRSADACLIFDNEALFDLAHRKWNIESPTVDDLNLLITEALAGITASMRFSGFLTVEISLRELLTNLVPQPSLHFLMCAFAPLTPPDGSDGEELGIEEMIKSLFDNGSVFAACSPMEGRFLSTAVLYRGIMEDKPLADAALAAMREKLPLTYWIPTAFKIGYVEQPGISHRKSMVLLANNTEIARVLDRICHNFDKLWQRKAFANWYLNEGMSEEQINVLRASAQELVQSYQVAEESGAKAKVQDSAGDTGMRAAAAGVSDDARGSMSLRDLVDRRR
chain 2: MREILSIHVGQCGNQIADSFWRLALREHGLTEAGTLKEGSNAAANSNMEVFFHKVRDGKYVPRAVLVDLEPGVIARIEGGDMSQLFDESSIVRKIPGAANNWARGYNVEGEKVIDQIMNVIDSAVEKTKGLQGFLMTHSIGGGSGSGLGSLILERLRQAYPKKRIFTFSVVPSPLISDSAVEPYNAILTLQRILDNADGAVLLDNEALFRIAKAKLNRSPNYMDLNNIIALIVSSVTASLRFPGKLNTDLSEFVTNLVPFPGNHFLTASFAPMRGAGQEGQVRTNFPDLARETFAQDNFTAAIDWQQGVYLAASALFRGDVKAKDVDENMATIRKSLNYASYMPASGGLKLGYAETAPEGFASSGLALVNHTGIAAVFERLIAQFDIMFDNHAYTHWYENAGVSRDMMAKARNQIATLAQSYRDAS
notes: BtubA*, as m5; BtubB, as m6; The heterodimer as the unit that polymerises into single protofilaments; also called BtubA*B M-loop mutant; mutant BtubAB; source: E. coli C41(DE3), co-expressed and co-purified (HiTrap Q XL, Sephacryl S300, Mono Q)
  binding result: binds
